Molecular target: MERS-CoV spike protein (S) (MERS-CoV, UniProt K9N5Q8 18-1296)
Test: EMSA

Chain of MERS-CoV spike protein (S) (K9N5Q8 18-1296): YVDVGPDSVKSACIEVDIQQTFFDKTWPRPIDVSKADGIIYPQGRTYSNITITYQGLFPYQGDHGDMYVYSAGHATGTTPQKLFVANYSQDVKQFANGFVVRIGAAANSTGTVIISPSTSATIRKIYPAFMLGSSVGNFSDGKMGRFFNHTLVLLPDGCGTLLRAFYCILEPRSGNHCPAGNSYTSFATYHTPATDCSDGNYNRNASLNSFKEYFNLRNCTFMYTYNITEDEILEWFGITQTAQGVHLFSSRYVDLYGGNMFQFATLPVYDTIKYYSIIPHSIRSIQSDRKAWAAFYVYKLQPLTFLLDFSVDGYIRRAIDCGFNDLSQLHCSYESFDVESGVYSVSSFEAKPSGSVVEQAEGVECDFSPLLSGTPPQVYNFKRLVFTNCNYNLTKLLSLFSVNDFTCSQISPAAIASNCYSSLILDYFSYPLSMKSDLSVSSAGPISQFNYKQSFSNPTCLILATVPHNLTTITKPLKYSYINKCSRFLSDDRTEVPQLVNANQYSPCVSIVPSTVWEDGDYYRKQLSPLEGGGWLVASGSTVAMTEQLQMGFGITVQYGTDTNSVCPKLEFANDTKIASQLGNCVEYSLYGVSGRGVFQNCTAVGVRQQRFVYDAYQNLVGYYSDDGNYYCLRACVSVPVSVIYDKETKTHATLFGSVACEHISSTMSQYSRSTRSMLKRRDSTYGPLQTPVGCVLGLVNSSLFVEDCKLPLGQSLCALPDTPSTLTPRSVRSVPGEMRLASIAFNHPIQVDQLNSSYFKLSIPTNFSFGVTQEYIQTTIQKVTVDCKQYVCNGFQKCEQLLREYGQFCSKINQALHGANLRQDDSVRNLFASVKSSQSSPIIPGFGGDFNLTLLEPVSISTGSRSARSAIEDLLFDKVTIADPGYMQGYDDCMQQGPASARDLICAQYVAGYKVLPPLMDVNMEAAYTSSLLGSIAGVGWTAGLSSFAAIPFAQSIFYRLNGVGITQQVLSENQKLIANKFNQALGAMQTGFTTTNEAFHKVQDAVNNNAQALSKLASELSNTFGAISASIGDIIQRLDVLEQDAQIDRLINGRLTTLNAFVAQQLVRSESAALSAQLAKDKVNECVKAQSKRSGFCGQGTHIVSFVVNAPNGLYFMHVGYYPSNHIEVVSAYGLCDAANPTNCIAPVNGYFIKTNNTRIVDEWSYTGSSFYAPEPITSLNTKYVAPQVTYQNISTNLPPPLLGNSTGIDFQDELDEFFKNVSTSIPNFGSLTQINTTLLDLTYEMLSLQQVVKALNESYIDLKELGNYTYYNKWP

B1: AIapt/FAM/SH-DNA 3WJ (MF-DNA) (structured_DNA)
DNA 1: GTGTGCATGGATAGCACGTAACGGTGTAGTAGATACGTGCGGGTAGGAAGAAAGGGAAATAGTTGTCCTGTTGTTGCCATGTGTATGTGGG
DNA 2: CCCACATACTTTGTTGATCC
DNA 3: GGATCAATCATGGCAA
modifications: 5' thiol on strand 3 (SH/3WJc)
B1: no binding.

Source: article PMC7185628
